Measured values from the NTF2 design screens of Basanta et al. (2020).

Assay: protease stability score; higher = more stable; yeast display proteolysis, trypsin and chymotrypsin;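 note: relative to predicted unfolded state with 0 unfolded-like and 1 meaning tenfold more protease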

Row | Sequence | protease stability score
1 | DEEDELLMKVLTEWFHALRTGDEEKLDELADPNVRIEIGDKELHGMEVWQEYLRRYDHDRQDKVHFRTHEKQGNKLILDVEEDVVIEVNGKRIRTHVRSEIILVKINGRWVFTSIIVH | 1.34
2 | DEEDELMKEYFELFWRDLLTGNEELLENLVDPHVRVKVGDKEFHGRHLLSKLASDMGVDHIQIEDMRVQGDKLSIDTTVDVNGKRRRMTLRARKVNGRWFFTELEVR | 1.5
3 | DEEDELSEELSRFSLKTLRTGDEDLLSRNMDPHVRMDIDGQDLHGREHVIKFLKDWNRMFGIKHTELKHVRIQGNWIEIHARIQVGDKEMDLRIYAVKIDGRWLVHSIEVEKK | 0.182
4 | DEEDELSHQIAEEFFRFFSTGNEEKSKELLDPDVRVESEDHHDHGMHKLLHLWNRIDHIHMRSRHVEFDRVGDFLEIRMRGHVILDVNGVRTEIDTELLLVVTKFDGRWLMHEVKFIIR | 0.696
5 | DEEDEMAISLAKLFVDDLMTGNWRSLQHLLDPHTRLHVGDKEHHGRQKSVEWLKDLVRRIDHLEMDIHRLDVQGEKAESETESNVNIGDKEVRYHMELIILVVNGRVKEIEIRLG | 0.941
6 | DEEDEQAKELSRIMMEVLRTGDEDMFTKLLDPNVRLEIGEKEDHGRERAMHWLIRFLYRIPNARFIWRDVDVHRINGRVLDTSDLQVRINGRDFKTFVITHIVKIDGRWRVTKLEVHIE | 1.56
7 | DEEDEQLHRFAQLYFEAMVTGDEDLLRHLLDPHVRVHINGRELHGRENMAKWLKDFWDKYKNVQLNLHHIRVIGDKVHMDVEMDVNGREERVHIHVEMIDGVVHSSHHRIE | 1.02
8 | DEEDEQREHLLELLFHFLRTGDEELLFRLADPRVRHVWNGRELHGRELVIEILDDELEKMGANHIHIDLERVRMVDGRLDVDGHIVIKIGDKSHFFDMHFHIRKIDGRWVIKDLTIR | 0.853
9 | DEEDERLHEFAKLFADLWFTGDEEELHDLIDPHAKLNVDVNGRILDSHGREEFVKVLRKLREHLGVDHVELKDMKVQGDKVIIHGVLIINGRRFDSTLWVYIFNGKIESMEVRMR | 1.69
10 | DEEDERNLKLFHLAMLASITGNEELIEQLVDPDVRIEINGRDKHGRETLIKLLERFDHFQWHRFHWRRLEIQGNKIIMLLEVHGTIHIGEFKIKLQTDTISIVTKIDGRWTIKELYIK | 1.62
11 | DEEDERSKEAMEHFLENEITGDWKRLHELFDPNARMHINGREYHGREEVTNKFWEHNYRMGVKHVEVRDLEVINGRVHLHVEQDVGEFHIELEVVIKKVNGRWLIEETEIHVR | 0.987
12 | DEEDEVLKLAFEFIRHQLETGDEDTLNRYVDPHARFEVNGRDIHGRDRYNRFLEELYRKHGVEIKDVLLQDNKSQGDKIRIDIKINIDVNGREVNFDVHIIALKINGKWIHKRQIDI | 0.542
13 | DEEDEYVEKATRFFIKSILTGNEEWVSRLADPHVRLWVGDKEFHGRERYVRVFHEHMRQIRYRDFKLHDIDRQGDKIIVIGRREVEVDGRIDTYEIHIYARKINGRWILESEIVN | 0.936
14 | DEEDEYYNMALEHFVKTILTGNWKRFKKLADPHVRMEIDGREHHGREEATKVFNRFDHIKNFDFRDIELQGEKIEVHGELHGTINGKDVHTSFHIIMYKVNGKWEEKEVKFQ | 1.28
15 | DEEDHDLELFLQIMTHDMRTGNEDNLTRLLDPHVRLEWNGKEFHGRDVMRFWREELGHDNVEVHMRLKDRELQGDKLIIHGEIIHRYNGREIRLDIHFIAHKVDGKWIARVRNIQ | 1.64
16 | DEEDHESHEMMRQHFEAFVTGDFESFTRYADPHVRLIVGDKHFHGRDLIVHVFLRLWHELGVKVSRIKEIHSVGDKMHLDGELHVGDKRFRLLVEARKFDGRWFNKRVELVIL | 1.48
17 | DEEDHHLRQIFEELLRALVTGDEEFLEQMADPRTRFILIIDGRRIEWHGREEFFRHFHEWRLRNYRITHLESYNGRIRVEGEVDENFNGKERHTKTHHTIIVINGRLHSIVLNIH | 1.72
18 | DEEDHILLEIMRRVFESIMTGDEDLFRELADPNVRIRIGNKEMVGWEHIVKTLRKEDEDLGAKHKSFTLDDEDLIGNYAHVEGTLHIEFNGKDIHRHIRINVEVIDGRVKSIRMEDK | 0.936

Row | Sequence | protease stability score
19 | DEEDHLMKHASEMFLHVMKTGDEDTLRRLVDPHVRLDWNGRKWHGRETVTRIIVENIHELGIDHIHLNHFEIYNGQADTNIEVRYNGKREEYHIHMHKVNGRWTVKSIHVTEE | 1.5
20 | DEEDKALEESMRTYHESIHTGDEESFRLLFDPDVRMRINGVDLHGREAMEWMSERIDHLELRRIRFRSIETQGNKIRIDGHEDIEILVDGKRMRVIDRVIIQAVKVNGRWTIKSIKFG | 1.15
21 | DEEDKDLHRWLEESTHAMLTGDEQHLTELADPNVKFNFDGREIHGREEYVKFMHRWIRHAGFKHIHVETKDVRVQGNKLHVDTHSIHDYNGRRVRTDTRVFVEKINGRWRLHSIEIE | 1.4
22 | DEEDKEAHEMVNDALQDFLTGDEDSLRNLVDPNARFEAENHHLIGMETVEWHIREFKNVTIEVKRVDVEVQGDKAILRMNIDIRVNGKTIDEHWEVHVRKFNGQWIITIVKVEFR | 2.17
23 | DEEDKFSREAIELWIRVLETGNEHLLHKLADPHVRVVFNGKESVGMEEFVEVLREIRIHTSRDRHVRLQGDKVDVDSIIDGEVNGVRTKVETQLIATKIDGRWVNQQVNWR | 0.23
24 | DEEDKHADWIMKQMVDLWTTGDEETSITLLDPNVKLHVDGRDIHGREKAMEWLRRFIVHLRIEIIIRHFDFQGNFARFHGELEIRIGDKSQVLETRLEIIVVNGKFRILEIELR | 2.71
25 | DEEDKHLIDMFRILMRTIETGNEEETRKLMDPHTIIEIGDKRSHGWESWKKFIEDLERRFDHVRIEIEDVKVQGDKAIVRTRLKLIVGDKHFEHDTRIFVVMVNGRIHTFRVEID | 1.48
26 | DEEDKHLQEMVEKLVKNWLTGDWDKLRELLDPNTKSNIGEYTSIGWEKDAEAFEKLIHELGIKHMNFLIRRIHVVDGRAHSDVEIELEVDGRNTEVKTHLIVVIINGRVKSITVEYK | 0.297
27 | DEEDKKVKYFLNEWLHAVKTGDEEHLKRLADPRTYEQVGDKHYHGRETFRRFLHDLLEEMRFHRIHIKFSQMVNGVFYVNGELDGTFDGRRHRTDMRLEFEVVNGRIHELRIEIV | 1.18
28 | DEEDKLSKEFSRTWEEIWRTGDEQEIKHLADPDTRDLVYIDGVNIDNHGREEMSRSMREWRDKFKNAREHVTHSRAQGDKVEMRIRIDFNGREIDMIVKIIVVDGRLKEFEIEIR | 1.56
29 | DEEDKMAEFFMRLIFRAWLTGDEEELEKFMDPNTKHNLDIDGRNDHQIGRHEIVHHLKHFWRRYDHVQVKIRKYHIQGEKAHLHGHLILFIDGVEIRHNIEIRVVVINGRVHSVTMHIH | 1.79
30 | DEEDKMVRVLVELWVENFITGDEEKLYELMDPDTRLEIDGVENHGMEKAIEFLERHREHYGVDHIHLIIHEVKHQGNKAHIDGILEFRQGDKQIELHWELHFEVVNGRMKEVHVNTR | 2.29
31 | DEEDKNTHEFARRIIESWVTGDWKDLHELIDPHARLILDVGNKKEIYHGREEVKRRLLREIEKFKNVRFEIRDLHVVGDKVDAEVTLHIDGKDIEIHIHLLIVNGKVKEIRLHYH | 2.27
32 | DEEDKWDELLLEILIRIEKTGDEEKWLRFLDPHVRLDVDGQEVHGREEVVRVQKEWKERLGVKHIVIKRTKVVNGRIDMDKVMNVDGVNIKVHYHYHLVNGVLHEVEVRLE | 0.992
33 | DEEDKWETHFLKVLEDSLKTGDETSLERMADPTARLSVGDKEHHGRDLLFFWIHKLLREAGVDKVESELHDEERQGEKVIVDIHLRVGDKVLRVIFYIYKYNGQWFIRSIEVE | 1.04
34 | DEEDMDEVEKAIRKNDPEKMRDLADENAKASVGDNQFHGRDNVENFMKHLTDHADHVQVDSVEKHNGRVVVNAQLDINGEQIQIVIRIDVHNGKIKRFSIEVRDEEAHHFMREMVS | 0.686
35 | DEEDNMMREIWKQLVDNQRTGDEDRLQDLIDPHVRIIINIDGRELRSHGRHELVRWLREMGVDYLDIKSYRLQGDKIETDGTLSIGDKTKEVEVRYNIIDGRTKEVEFHLR | 0.167
36 | DEEDQDWERILEELLRSLLTGDEEFIRRLIDPNVRMHIKQGDKRINLHGRDAIEKLLELLHRRIKGVRIEIKRHDIQGDKIYVDGVINIDGKEFKIIIHIIVINGRLHTVSFETE | 1.9
